B1: Condensin complex subunit 2 (Schizosaccharomyces pombe (strain ATCC 38366 / 972)), Q9Y7R3 (parent)
chain: MKRASLGGHAPVSLPSLNDDALEKKRAKENSRKQRELRRSSALHSITPRRESLNNSSPFNSSHQVPVLSNFEEWIKLATDNKINSTNTWNFALIDYFHDMSLLRDGEDINFQKASCTLDGCVKIYTSRIDSVATETGKLLSGLANDSKVLQQTEEGEDAENDDEDLQKKKERKRAQRSVKTLVKDFESIRAKKFELECSFDPLFKKMCADFDEDGAKGLLMNHLCVDQHGRIVFDSSDTVIKDLENKDVEAESQEAVVAAPIESHDTEMTNVHDNISRETLNGIYKCYFTDIDQLTICPSLQGFEFDSKGNLDVSLLKSLSDEVNMITTTSLVDNTMEKTDADAASLSSDSDGEEGHIVHALEEMAYDEENPYVDVVPKAMDESENPDFGVDTEVNMADGSTMNENYSIISTAAANGVYEYFDKSMKKNWAGPEHWRIQALRKNINNASTVFNSSNTAESSDNVSRSLSSTERKKRRELDNAIDFLQEVDVEALFTPATSSLKLPKSHWKRHNRCLLPDDYQYDSKRLLQLFLKPKMSVLPNADGEGQLQLNKALDDENDLDGIQPHGFDSDGSDNVDEGIPPYGFGDSDSPKQTPLLTPPSSSGFGDNLLLTARLAKPDMLNYAKRAKKVDVRVLKEKLWKCLDLENTIKENSINSHIEGSEMESEETNMPVKSFFSTVNQLEETYEKKELKDISTSFAFICVLHLANEHNLELTSNEDFSDVFIRPGPNLTTLEALENDV

Variants of: B1
Conditions: with h2a2_schpo hta2, P04910

| effect of a mutation on the interaction | Variant |
| --- | --- |
| decreasing interaction | S5A;S41A;S52A |

Variants of: B1
Conditions: with h2az_schpo pht1, P48003
Chain of h2az_schpo pht1, P48003 (P48003 whole entry): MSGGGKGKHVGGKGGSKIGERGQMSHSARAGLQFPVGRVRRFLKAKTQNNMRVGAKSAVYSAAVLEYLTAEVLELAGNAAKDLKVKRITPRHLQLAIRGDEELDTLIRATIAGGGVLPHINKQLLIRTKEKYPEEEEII

| effect of a mutation on the interaction | Variant |
| --- | --- |
| decreasing interaction | S5A;S41A;S52A |

— IntAct's records for PubMed 21633354
